This test concerns the target T1, gB/VP22trunc binding (Human herpesvirus 1, UniProt P10211).
T1 construct: linked residues 798 to 904 of gB to the glutathione-S-transferase (GST) protein expressed by pGex2TNMCR; made in house; host or cells: GST-gB: E. coli DH5alpha; VP22trunc: E. coli BL21(DE3)
Nature of the test: Far Western analysis of peptide inhibition of GST-gB binding to VP22trunc. Also on record: species or system HSV-1. The settings on record: peptide 250 μg/ml co-incubated with GST-gB 1.2 μg/ml; FIG. 12B. The protocol: (B) Inhibition of binding of GST-gB (final concentration 1.2 μg/ml)and each of the following peptides at a final concentration of 250 μg/ml: lane 1, no peptide; lane 2, peptide A; lane 3, peptide B; lane 4, peptide C; lane 5, peptide D; lane 6, peptide E; lane 7, peptide F; lane 8, peptide G; lane 9, peptide H; lane 10, peptide I; lane 11, peptide J. Bound GST-gB was detected with anti-GST antibody.
Following electrophoresis, proteins were electrotransferred to either Hybond or ProBlott (Applied Biosystems) membrane and the membrane was incubated in renaturation buffer (50 mM Tris-HCl, pH 8.0, 150 mM NaCl, 10% glycerol, 1 mM DTT) at 4° C. for 5-6 hours.
For membranes probed with GST-gB, blocking was performed overnight in PBSA containing 1% non-fat dried milk and 0.05% Tween 20 at 4° C. Membranes were then washed twice in renaturation buffer (10 min/wash) prior to incubation with fusion protein (final concentration 0.5 μg/ml) in renaturation buffer containing 1% BSA. Incubation was again performed overnight at 4° C. Following washing with renaturation buffer (four times, 10 minutes/wash) and a brief rinse with blocking buffer, the membrane was incubated with anti-GST antibody in PBSA, 1% non-fat dried milk, 0.05% Tween 20 and 1% BSA for 1 hour at ambient temperature. After four washes with PBSA, 0.05% Tween 20 (10 minutes/wash), bound antibody was detected with secondary antibody (goat anti-rabbit IgG, whole molecule; Sigma) conjugated to Horse Radish Peroxidase (HRP) by incubating at room temperature for 45 minutes. Following four further washes with PBSA, 0.05% Tween 20, the secondary antibody was visualised by enhanced chemiluminescence.
Similar to the studies performed with inhibition of binding of VP16 to VP22, peptides A to J, which span residues 18 to 144 of VP22trunc, were used to examine whether gB binding could also be prevented (FIG. 12B).

T1 sequence (P10211 798-904): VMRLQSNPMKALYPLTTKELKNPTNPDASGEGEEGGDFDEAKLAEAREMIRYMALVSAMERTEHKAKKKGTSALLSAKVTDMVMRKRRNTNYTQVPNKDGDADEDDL

On to TPRVAGFNKRVFCAAVGRLA [Peptide D], for which the “Inhibition of GST-gB binding to VP22trunc (Far Western)” value was “completely inhibited binding of gB”.

Turning to CAAVGRLAAMHARMAAVQLW [Peptide E], the “Inhibition of GST-gB binding to VP22trunc (Far Western)” value was “completely inhibited binding of gB”.
